Source: paper doi:10.1101/2023.06.09.544295 (bioRxiv, 2023)

Legend:
CMKLR1 = test system: CMKLR1; design: method as in 4 sources, one per row (each row's own in cited_ref): ref [28] = [28]; PMID 25437209; doi:10.1371/journal.pone.0112925; 28 Graham K. L. A novel CMKLR1 small molecule antagonist suppresses CNS autoimmune inflammatory disease. PLoS One 9 , e112925 , doi: 10.1371/journal.pone.0112925 ( 2014 ). 25437209 PMC4249827 ||| ref [9] = [9]; PMID 25548799; doi:10.1007/s00011-014-0792-7; 9 Mariani F. & Roncucci L. Chemerin/chemR23 axis in inflammation onset and resolution. Inflamm Res 64 , 85 – 95 , doi: 10.1007/s00011-014-0792-7 ( 2015 ). 25548799 ||| ref [25]–[27] = [25]; PMID 17339491; doi:10.4049/jimmunol.178.6.3912; 25 Arita M. Resolvin E1 selectively interacts with leukotriene B4 receptor BLT1 and ChemR23 to regulate inflammation. J Immunol 178 , 3912 – 3917 , doi: 10.4049/jimmunol.178.6.3912 ( 2007 ). 17339491 || [26]; PMID 19906641; doi:10.1074/jbc.M109.044131; 26 Ohira T. Resolvin E1 receptor activation signals phosphorylation and phagocytosis. J Biol Chem 285 , 3451 – 3461 , doi: 10.1074/jbc.M109.044131 ( 2010 ). 19906641 PMC2823415 || [27]; PMID 25637017; doi:10.4049/jimmunol.1402166; 27 Herova M. , Schmid M. , Gemperle C. & Hersberger M. ChemR23, the receptor for chemerin and resolvin E1, is expressed and functional on M1 but not on M2 macrophages. J Immunol 194 , 2330 – 2337 , do ||| ref [2]–[5] = [2]; PMID 17635925; doi:10.1074/jbc.M700793200; 2 Goralski K. B. Chemerin, a novel adipokine that regulates adipogenesis and adipocyte metabolism. J Biol Chem 282 , 28175 – 28188 , doi: 10.1074/jbc.M700793200 ( 2007 ). 17635925 || [3]; PMID 17767914; doi:10.1016/j.bbrc.2007.08.104; 3 Roh S. G. Chemerin--a new adipokine that modulates adipogenesis via its own receptor. Biochem Biophys Res Commun 362 , 1013 – 1018 , doi: 10.1016/j.bbrc.2007.08.104 ( 2007 ). 17767914 || [4]; PMID 29848608; doi:10.1530/JOE-18-0174; 4 Helfer G. & Wu Q. F. Chemerin: a multifaceted adipokine involved in metabolic disorders. J Endocrinol 238 , R79 – R94 , doi: 10.1530/JOE-18-0174 ( 2018 ). 29848608 PMC6026924 || [5]; PMID 29279348; doi:10.1124/pr.116.013177; 5 Kennedy A. J. & Davenport A. P. International Union of Basic and Clinical Pharmacology CIII: Chemerin Receptors CMKLR1 (Chemerin(1)) and GPR1 (Chemerin(2)) Nomenclature, Pharmacology, and Function.; conditions: cited from earlier work
Excerpt: Other isoforms of chemerin due to cleavage at different sites of the C-terminal region have also been detected in vivo with ... || The apparent contradictory functional roles of CMKLR1 in inflammation may be associated with the spatiotemporal regulation of the inflammation processes in cells. It is possible that in the early stage of inflammation the CMKLR1 signaling is mainly pro-inflammatory by promoting chemotaxis and activation of DCs and macrophages; whereas at the late stage of inflammation CMKLR1 activation can induce pro-resolving pathways to dampen inflammation.

[1] = test system: primary human macrophages; assay: Macrophage differentiation assay, cell surface marker expression by flow cytometry; assay type: cell-based
Excerpt: HLA-DR is a class II major histocompatibility complex cell surface molecule, a signature cell marker for antigen presenting cells (APCs), while CD86 is a selective ligand for the costimulatory molecule CD28, the activation of which is indispensable for optimal T cell prime and activation; together, HLA-DR and CD86 are signature cell surface markers for the canonical M1-like macrophages. On the other hand, CD206, the mannose receptor (MMR), is a glycosylated surface protein belonging to the scavenger receptor family. Similarly, CD163, another member of the scavenger receptor family, is the receptor for hemoglobin-haptoglobin complex. The upregulation of CD206 and CD163 in macrophages has been associated with the anti-inflammatory and tissue-repair phenotype,[33].
To generate human peripheral blood-derived macrophages, buffy coat was isolated from leukapheresis cones by Ficoll-Paque centrifugation. Monocytes were enriched from human PBMC by CD14 beads positive selection (Miltenyi Biotec) and cultured in IMDM supplanted with 10% human AB serum (omega scientific, Cat# HS-20) for 7 days for them to differentiate to macrophages.
Differentiated macrophages were then replated to low-bind plate at 0.15 million cells per 24-well plate, in 500 µl medium overnight before stimulated with various condition. […] Data were acquired on Cytek Aurora flowcytometry, analysis on Flowjo. MFI quantifications were normalized to M0 condition, and statistically analyzed by 2-way ANOVA, with Dunnett’s multiple comparisons test, all groups were pair-analyzed with M0 group as reference.

[2] = target: T1, wild type human CMKLR1 with the N-terminal 28-amino acid segment of human β2-adrenergic receptor fused to its … (Homo sapiens (Human), UniProt P07550); assay: cryo-EM structure of co-purified complex; chemerin9 agonist, Gβ1γ2, scFv16 and apyrase (nucleotide-free); Gαi1 carries dominant negative mutations S47N/G203A/E245A/A326S
T1 chain: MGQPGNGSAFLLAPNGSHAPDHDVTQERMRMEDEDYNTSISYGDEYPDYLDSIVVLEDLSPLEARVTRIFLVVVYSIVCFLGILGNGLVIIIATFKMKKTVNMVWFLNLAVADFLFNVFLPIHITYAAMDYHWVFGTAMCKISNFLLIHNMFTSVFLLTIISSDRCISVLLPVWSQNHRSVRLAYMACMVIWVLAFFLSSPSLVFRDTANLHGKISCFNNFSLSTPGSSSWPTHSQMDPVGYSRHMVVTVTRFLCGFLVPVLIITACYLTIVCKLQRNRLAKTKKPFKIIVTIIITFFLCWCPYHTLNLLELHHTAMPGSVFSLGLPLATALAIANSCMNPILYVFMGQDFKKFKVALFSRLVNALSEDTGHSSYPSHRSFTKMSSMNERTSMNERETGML

[3] = MFI fold-change normalized to M0, chemerin9 10 ng/mL 72 hours, IFNg 10 ng/ml plus LPS 10 ng/ml, IL-10 10 ng/ml, n=4 donors, Fig. 1a

## CC[C@@H](O)/C=C/C=C\C[C@@H](O)/C=C/C=C/C=C\[C@@H](O)CCCC(=O)O [RvE1, resolvin E1]
CMKLR1; ref [25]–[27]
  action on CMKLR1 (in words): suggested to act on CMKLR1 to promote the resolution of inflammation

## chemerin15: synthetic peptide corresponding to the 141–155 amino acid segment of chemerin (AGEDPHSFYFPGQFA; UniProt Q99969 141-155, looked up, fragment)
CMKLR1; synthetic peptides, ref [9]
  CMKLR1 agonism / anti-inflammatory effect (in words): stable agonists of CMKLR1 that induce anti-inflammatory effects

## C[N+](C)(C)CCC(=O)c1cccc2ccccc12.[I-] [α-NETA]
CMKLR1; small-molecule antagonist, ref [28]
  potency against CMKLR1 (antagonist): low micromolar potency

B1: IL-10: reference signal molecule to induce the M2-like macrophages (protein, UniProt P22301 19-178, looked up)
Interleukin-10: SPGQGTQSENSCTHFPGNLPNMLRDLRDAFSRVKTFFQMKDQLDNLLLKESLLEDFKGYLGCQALSEMIQFYLEEVMPQAENQDPDIKAHVNSLGENLKTLRLRLRRCHRFLPCENKSKAVEQVKNAFNKLQEKGIYKAMSEFDIFINYIEAYMTMKIRN
[1]; 2-way ANOVA with Dunnett's multiple comparisons vs M0, n=4
  statistical significance of marker changes: statistically insignificant
[1]; [3]
  CD86 expression (in words): downregulation
  CD163 expression (in words): upregulation
  CD206 expression (in words): upregulation
[1]; overall, chemerin9 10 ng/mL, 72 hours
  macrophage phenotype (in words): consistent with an anti-inflammatory phenotype

B2: dominant negative form of human Gαi1 (DNGαi1) (protein)
chain: GCTLSAEDKAAVERSKMIDRNLREDGEKAAREVKLLLLGAGESGKNTIVKQMKIIHEAGYSEEECKQYKAVVYSNTIQSIIAIIRAMGRLKIDFGDSARADDARQLFVLAGAAEEGFMTAELAGVIKRLWKDSGVQACFNRSREYQLNDSAAYYLNDLDRIAQPNYIPTQQDVLRTRVKTTGIVETHFTFKDLHFKMFDVGAQRSERKKWIHCFEGVTAIIFCVALSDYDLVLAEDEEMNRMHASMKLFDSICNNKWFTDTSIILFLNKKDLFEEKIKKSPLTICYPEYAGSNTYEEAAAYIQCQFEDLNKRKDTKEIYTHFTCSTDTKNVQFVFDAVTDVIIKNNLKDCGLF
[2]
  binding result: binds
